From publication PMC6117287

B1: LaIHA (Roseibium aggregatum IAM 12614) (protein)
chain: MSSLNQLVSGLASGAVRIVDLTHTLDPDFPVIVLPPEFGQCARFRMEEISAYDHRGPAWKWHNISMSEHTGTHFDAPSHWISGKDVPNGSVDEIPAEAFVGPVVVIDCSKGAAENDDFELTPEIIAGWESEHGRIPEDAWVLMRTDWSKRRGADYLNMRADGPHSPGPTPEAIRFLIEERNIRGFGTETVGTDAGQGAHYVPPYPAHYLLHGAGKYGLQCLANLDQLPATGAVLIAAPLKIKNGTGSPLRVLAMVTE

What was measured:
[1] = molecular target: Isatin hydrolase A from Labrenzia aggregata (Labrenzia aggregata IAM12614); test: crystal structure; LaIHA at 15-20 mg/mL with 1 mM MnCl2, crystallised at 22 °C; structures with benzyl benzoate (1.50 Å) and isatinate (1.79 Å); dimer in the asymmetric unit
purified protein = substrate: O=C1Nc2ccccc2C1=O; test: purified protein; type: biochemical, Roseibium aggregatum; conditions: Mn2+ dependent enzyme; one-site Michaelis-Menten fit

Molecule	stoichiometry N [1]	Km (purified protein)
Isatin hydrolase A from Labrenzia aggregata (enzyme)	2	
B1		16 µM
